Legend:
[1] = tested on: DU145 prostate cancer xenograft tumors; experiment: DU145 prostate cancer xenograft tumor volume in nude mice; format: in vivo, male BALB/c athymic nude mice
Protocol: Data are shown as mean±S.E. Two group comparisons were analyzed by unpaired Student's t test. The level of significance for all statistical analyses was set at P<0.05. * P<0.05 compared to saline-treated control.
For in vivo studies, DU145 cancer cells (5×10^6) in 0.2 ml FBS-containing-EMEM medium were injected subcutaneously into the right flank of each male BALB/c athymic nude mice (weight, 20±2 g). After cancer cell injection, the mice were randomly divided into 3 groups, namely the control, low-dose treatment, and high-dose treatment groups. Ten days after tumor cell implantation, each mouse of the low-dose treatment group and high-dose treatment group was injected, respectively, once daily by the intraperitoneal route with 0.084 mg (in 0.1 ml saline) and 8.4 mg (in 0.1 ml saline) recombinant sPDZD2 for 58 days. The width and length of the tumor in millimeters were measured weekly by a caliper, when the implanted tumor became measurable. The tumor volume was calculated according to the following formula: Volume=d^2×D/2 mm^3, where d is the shorter width and D was the longer length.

22Rv1 cells [2] = experiment: Trypan blue dye exclusion cell viability assay; format: cell-based, human; details: for viability of the cells: mean ± S.E.
PC-3 cells [3] = experiment: MTS cell proliferation assay
Protocol: (§1) To determine whether or not alterations in PDZD2 and sPDZD2 levels in inhibitor-treated cells are associated with any changes in the cell growth rate, we also monitored DU145, PC-3, 22Rv1, MCF-7 and Hep-G2 cell proliferation by MTS-based assays. Cell proliferation was measured by a tetrazolium-based Cell Titer 96® AQucous assay kit (Promega). Absorbance at 490 nm was recorded 3 hours after MTS addition.
(§2) Cell proliferation was measured by a tetrazolium-based Cell Titer 96® AQucous assay kit (Promega). Absorbance at 490 nm was recorded 3 hours after MTS addition. […] The number of viable cells was counted using hemocytometers. Any apoptotic effect on cancer cells induced by sPDZD2 was measured by the Cell Death Detection ELISA^PLUS assay kit (Roche), which detects the presence of mono- and oligonucleosomes in the cytoplasm of the cells after lysis. Briefly, the cancer cells (1×10^5/ml) were seeded in 24-well plates and treated with 10^−8 M and 10^−7 M sPDZD2 for 24 hours. After treatment, cells were harvested and any apoptosis was detected according to manufacturer's instructions.

MCF-7 cells [4] = experiment: Trypan blue dye exclusion cell viability assay; format: cell-based, human; details: for viability of the cells: mean ± S.E.
LNCaP cells [5] = experiment: Trypan blue dye exclusion cell viability assay; format: cell-based, human
Protocol: The effects of sPDZD2 on cell viability were monitored by trypan blue dye exclusion assays. Data are shown as mean±S.E. Two group comparisons were analyzed by unpaired Student's t test. The level of significance for all statistical analyses was set at P<0.05. P<0.001 compared to control.

PC-3 cells [6] = experiment: Trypan blue dye exclusion cell viability assay; format: cell-based, human; details: for viability of the cells: mean ± S.E.
22Rv1 cells [7] = experiment: MTS cell proliferation assay
Protocol: as §1, §2

DU145 cells = experiment: MTS cell proliferation assay
Protocol: as §1, §2

Hep-G2 cells [8] = experiment: MTS cell proliferation assay
Protocol: as §1, §2

DU 145 cells = experiment: Trypan blue dye exclusion cell viability assay; format: cell-based, human; details: for viability of the cells: DU 145, mean ± S.E.
LNCaP cells [9] = experiment: Cell Death Detection ELISA PLUS apoptosis assay; format: cell-based, human
Protocol: Data are shown as mean±S.E. Two group comparisons were analyzed by unpaired Student's t test. The level of significance for all statistical analyses was set at P<0.05. *** P<0.001 compared to control.

MCF-7 cells [10] = experiment: MTS cell proliferation assay
Protocol: as §1, §2

Hep-G2 cells [11] = experiment: Trypan blue dye exclusion cell viability assay; format: cell-based, human; details: for viability of the cells: mean ± S.E.
[12] = 10^−9 M, 10^−8 M, 10^−7 M sPDZD2, 24 and 48 hours, P<0.001
[13] = co-incubation 10^−8 M sPDZD2 with 10 μM Z-DEVD-FMK, 48 hours

B1: sPDZD2: secreted 37 kDa cleavage product of human PDZD2, tumor suppressor protein of SEQ ID NO: 2; recombinant form carries N-terminal AGH (protein)
chain: LDKLCSEDYSAGPSAVLFKTELEITPRRSPGPPAGGVSCPEKGGNRACPGGSGPKTSAAETPSSASDTGEAAQDLPFRRSWSVNLDQLLVSAGDQQRLQSVLSSVGSKSTILTLIQEAKAQSENEEDVCFIVLNRKEGSGLGFSVAGGTDVEPKSITVHRVFSQGAASQEGTMNRGDFLLSVNGASLAGLAHGNVLKVLHQAQLHKDALVVIKKGMDQPRPSARQEPPTANGKGLLSRKTIPLEPGIGRSVAVHDALCVEVLKTSAGLGLSLDGGKSSVTGDGPLVIKRVYKGGAAEQAGIIEAGDEILAINGKPLVGLMHFDAWNIMKSVPEGPVQLLIRKHRNSS
[1]; high dose 8.4 mg once daily intraperitoneal for 58 days, at 39, 46, 53, 60 and 67 days after tumor cell implantation
  tumor volumes compared with saline-treated group: significant decreases
[1]; low dose 0.084 mg once daily intraperitoneal for 58 days
  tumor volumes compared with saline-treated group: No significant differences
22Rv1 cells [2]; 10^−7M sPDZD2, 24 hrs.
  viability of the cells: 96.04 ± 0.50%
22Rv1 cells [2]; 10^−7M sPDZD2, 48 hrs.
  viability of the cells: 92.65 ± 0.48%
22Rv1 cells [2]; 10^−8M sPDZD2, 24 hrs.
  viability of the cells: 96.01 ± 0.38%
22Rv1 cells [2]; 10^−8M sPDZD2, 48 hrs.
  viability of the cells: 93.02 ± 0.47%
22Rv1 cells [2]; sPDZD2, 24 and 48 hours
  changes in cell viability (in words): No changes
PC-3 cells [3]; 10^−7 M sPDZD2, 24 hours
  decrease in cell proliferation: 22.6%
PC-3 cells [3]; 10^−7 M sPDZD2, 48 hours
  decrease in cell proliferation: 41.6%
PC-3 cells [3]; 10^−8M sPDZD2, 24 hours
  decrease in cell proliferation: 13.5%
PC-3 cells [3]; 10^−8 M sPDZD2, 48 hours
  decrease in cell proliferation: 23.8%
PC-3 cells [3]; [12]
  effect on cell proliferation (in words): concentration-dependent inhibition
PC-3 cells [3]; [13]
  effect on the increase in cell proliferation induced by caspase-3 inhibitor treatment: abolished
MCF-7 cells [4]; 10^−7M sPDZD2, 24 hrs.
  viability of the cells: 97.34 ± 0.42%
MCF-7 cells [4]; 10^−7M sPDZD2, 48 hrs.
  viability of the cells: 92.07 ± 0.89%
MCF-7 cells [4]; 10^−8M sPDZD2, 24 hrs.
  viability of the cells: 96.69 ± 0.50%
MCF-7 cells [4]; 10^−8M sPDZD2, 48 hrs.
  viability of the cells: 93.86 ± 0.76%
MCF-7 cells [4]; sPDZD2, 24 and 48 hours
  changes in cell viability (in words): No changes
LNCaP cells [5]; 10^−7 M sPDZD2, 24 hours
  decrease in cell viability: 26.2%
LNCaP cells [5]; 10^−7 M sPDZD2, 48 hours
  decrease in cell viability: 18.6%
LNCaP cells [5]; 10^−8M sPDZD2, 48 hours
  decrease in cell viability: 14.7%
PC-3 cells [6]; 10^−7M sPDZD2, 24 hrs.
  viability of the cells: 90.86 ± 1.12%
PC-3 cells [6]; 10^−7M sPDZD2, 48 hrs.
  viability of the cells: 95.45 ± 0.56%
PC-3 cells [6]; 10^−8M sPDZD2, 24 hrs.
  viability of the cells: 95.03 ± 1.00%
PC-3 cells [6]; 10^−8M sPDZD2, 48 hrs.
  viability of the cells: 95.49 ± 0.79%
PC-3 cells [6]; sPDZD2, 24 and 48 hours
  changes in cell viability (in words): No changes
22Rv1 cells [7]; 10^−7 M sPDZD2, 24 hours
  decrease in cell proliferation: 15.4%
22Rv1 cells [7]; 10^−7 M sPDZD2, 48 hours
  decrease in cell proliferation: 27.7%
22Rv1 cells [7]; 10^−8 M sPDZD2, 24 hours
  decrease in cell proliferation: 12.7%
22Rv1 cells [7]; [12]
  effect on cell proliferation (in words): concentration-dependent inhibition
22Rv1 cells [7]; [13]
  effect on the increase in cell proliferation induced by caspase-3 inhibitor treatment: abolished
22Rv1 cells [7]; sPDZD2, 48 hours
  decrease in cell proliferation: 21.7%
DU145 cells; 10^−7 M sPDZD2, 24 hours
  decrease in cell proliferation: 29.9%
DU145 cells; 10^−7 M sPDZD2, 48 hours
  decrease in cell proliferation: 43.5%
DU145 cells; 10^−8 M sPDZD2, 24 hours
  decrease in cell proliferation: 25.8%
DU145 cells; 10^−8 M sPDZD2, 48 hours
  decrease in cell proliferation: 38.6%
DU145 cells; [12]
  effect on cell proliferation (in words): concentration-dependent inhibition
DU145 cells; [13]
  effect on the increase in cell proliferation induced by caspase-3 inhibitor treatment: abolished
Hep-G2 cells [8]; 10^−7 M sPDZD2, 24 hours
  decrease in cell proliferation: 23.1%
Hep-G2 cells [8]; 10^−7 M sPDZD2, 48 hours
  decrease in cell proliferation: 22.2%
Hep-G2 cells [8]; 10^−8 M sPDZD2, 24 hours
  decrease in cell proliferation: 21%
Hep-G2 cells [8]; 10^−8 M sPDZD2, 48 hours
  decrease in cell proliferation: 17%
Hep-G2 cells [8]; [12]
  effect on cell proliferation (in words): concentration-dependent inhibition
Hep-G2 cells [8]; [13]
  effect on the increase in cell proliferation induced by caspase-3 inhibitor treatment: abolished
DU 145 cells; 10^−7M sPDZD2, 24 hrs.
  viability of the cells: 93.78 ± 1.06%
DU 145 cells; 10^−7M sPDZD2, 48 hrs.
  viability of the cells: 95.25 ± 0.88%
DU 145 cells; 10^−8M sPDZD2, 24 hrs.
  viability of the cells: 94.66 ± 0.69%
DU 145 cells; 10^−8M sPDZD2, 48 hrs.
  viability of the cells: 95.09 ± 1.02%
DU 145 cells; DU145, sPDZD2, 24 and 48 hours
  changes in cell viability (in words): No changes
LNCaP cells [9]; 10^−7 M sPDZD2, 24 hours
  absorbance at 405 nm (mono- and oligo-nucleosomes in the cell cytoplasm, apoptosis): Significant (P<0.001) increases
LNCaP cells [9]; sPDZD2, 24 hours
  absorbance at 405 nm (mono- and oligo-nucleosomes in the cell cytoplasm, apoptosis): Significant (P<0.001) increases
MCF-7 cells [10]; 10^−7 M sPDZD2 (first-named of '10^−7 M and 10^−7 M'), 24 hours
  decrease in cell proliferation: 14.5%
MCF-7 cells [10]; 10^−7 M sPDZD2 (second-named), 24 hours
  decrease in cell proliferation: 23.2%
MCF-7 cells [10]; 10^−7 M sPDZD2, 48 hours
  decrease in cell proliferation: 21.4%
MCF-7 cells [10]; [12]
  effect on cell proliferation (in words): concentration-dependent inhibition
MCF-7 cells [10]; 1108 M sPDZD2, 48 hours
  decrease in cell proliferation: 13.7%
MCF-7 cells [10]; [13]
  effect on the increase in cell proliferation induced by caspase-3 inhibitor treatment: abolished
Hep-G2 cells [11]; 10^−7M sPDZD2, 24 hrs.
  viability of the cells: 93.37 ± 0.54%
Hep-G2 cells [11]; 10^−7M sPDZD2, 48 hrs.
  viability of the cells: 93.58 ± 0.64%
Hep-G2 cells [11]; 10^−8M sPDZD2, 24 hrs.
  viability of the cells: 93.38 ± 0.54%
Hep-G2 cells [11]; 10^−8M sPDZD2, 48 hrs.
  viability of the cells: 93.64 ± 0.66%
Hep-G2 cells [11]; sPDZD2, 24 and 48 hours
  changes in cell viability (in words): No changes

Source: US20090062189A1, “TUMOR SUPPRESSOR PROTEIN AND NUCLEOTIDE ENCODING SAME” (priority 2006, published 2009)
